Reference: IntAct's records for PubMed 23972470

B1: Serine/threonine-protein kinase 3 (Homo sapiens), Q13188 (parent)
chain: MEQPPAPKSKLKKLSEDSLTKQPEEVFDVLEKLGEGSYGSVFKAIHKESGQVVAIKQVPVESDLQEIIKEISIMQQCDSPYVVKYYGSYFKNTDLWIVMEYCGAGSVSDIIRLRNKTLIEDEIATILKSTLKGLEYLHFMRKIHRDIKAGNILLNTEGHAKLADFGVAGQLTDTMAKRNTVIGTPFWMAPEVIQEIGYNCVADIWSLGITSIEMAEGKPPYADIHPMRAIFMIPTNPPPTFRKPELWSDDFTDFVKKCLVKNPEQRATATQLLQHPFIKNAKPVSILRDLITEAMEIKAKRHEEQQRELEEEEENSDEDELDSHTMVKTSVESVGTMRATSTMSEGAQTMIEHNSTMLESDLGTMVINSEDEEEEDGTMKRNATSPQVQRPSFMDYFDKQDFKNKSHENCNQNMHEPFPMSKNVFPDNWKVPQDGDFDFLKNLSLEELQMRLKALDPMMEREIEELRQRYTAKRQPILDAMDAKKRRQQNF
partner: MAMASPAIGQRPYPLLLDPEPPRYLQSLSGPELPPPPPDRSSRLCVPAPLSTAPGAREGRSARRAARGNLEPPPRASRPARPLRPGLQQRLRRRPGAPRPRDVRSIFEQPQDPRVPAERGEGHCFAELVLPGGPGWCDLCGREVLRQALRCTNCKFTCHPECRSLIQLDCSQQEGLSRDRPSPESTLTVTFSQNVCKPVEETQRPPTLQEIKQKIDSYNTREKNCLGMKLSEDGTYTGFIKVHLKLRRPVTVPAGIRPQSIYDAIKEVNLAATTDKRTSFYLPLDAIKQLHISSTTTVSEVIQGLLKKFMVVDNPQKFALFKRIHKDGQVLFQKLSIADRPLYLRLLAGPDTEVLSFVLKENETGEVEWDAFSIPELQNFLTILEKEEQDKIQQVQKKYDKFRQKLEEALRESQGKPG

Variants of: B1
Conditions: with RASSF5, Q8WWW0-1

Variant	effect of a mutation on the interaction
MEQPPAPKSKLKKLSEDSLTKQPEEVFDVLEKLGEGSYGSVFKAIHKESGQVVAIKQVPVESDLQEIIKEISIMQQCDSPYVVKYYGSYFKNTDLWIVMEYCGAGSVSDIIRLRNKTLIEDEIATILKSTLKGLEYLHFMRKIHRDIKAGNILLNTEGHAKLADFGVAGQLTDTMAKRNTVIGTPFWMAPEVIQEIGYNCVADIWSLGITSIEMAEGKPPYADIHPMRAIFMIPTNPPPTFRKPELWSDDFTDFVKKCLVKNPEQRATATQLLQHPFIKNAKPVSILRDLITEAMEIKAKRHEEQQRELEEEEENSDEDELDSHTMVKTSVESVGTMRATSTMSEGAQTMIEHNSTMLESDLGTMVINSEDEEEEDGTMKRNATSPQVQRPSFMDYFDKQDFKNKSHENCNQNMHEPFPMSKNVFPDNWKVPQDGDFDFLKNLSLEELQMRLKALDPMMEREIEELRQRYTAARQPILDAMDAKKRRQQNF [K473A]	decreasing interaction strength
